# Test system: Bca DNA polymerase
# Conditions: unmodified dCTP; 39 units/µl with dCTPalphaS, 40-50 with dCTPalphaBH3; 4 mM Mg, 60 C
substance,measurement,value
activated calf thymus DNA,activity,152 units/µl
